Measurements taken from PMC7472852, “The Phosphatase PP2A Interacts With ArnA and ArnB to Regulate the Oligomeric State and the Stability of the ArnA/B Complex” (Frontiers in Microbiology, 2020).

B1: C-terminally His-tagged ArnB (natural protein, S. acidocaldarius, UniProt Q4J9H3 1-380, looked up)
chain: MTISVKAELSHKYSFTSPLKGVFRLIIVPEKVSTARGFHYIILLDTSGSMYGVKIETAKQGAMELLSRIPEGNKISFLTFSNNVNILSEYADAPSLVQQIKQIRSGGQTVLYRALERAIEIAKKHDLPGYIILLTDGQPTDVPETDAYEKLNYPEAYKVIAFGIGDDYNERLLKVITDKTAGILYHVEDAKEIAEMLPQSAVTEIGAKNVSIDIVSETQVKLLNYPGPPVKLGAVESVVRVYGEIIIPPNFTGRLATVKISYEDPLSSRINRLEVNFDITRANDVKRFLDGINNDLVNEYRYYELMSKLANQLNSNNLSEATRTVEQMQMIAQQTRRMELIETTRRISESIETTRRIGTVEQTRKISKEITSEVTKKLRS
notes: ArnB of Sulfolobus acidocaldarius; printed molecular mass of ArnB-His 43.6 kDa; also called ArnB-His; source: E. coli Rosetta (DE3)/pLysS, purified (heat step, Ni-NTA, SEC); not shown: His, C-terminal, kept
B2: phosphorylated ArnA/B complex (complex, S. acidocaldarius)
chain 1: MTWKCNLCGYENDDDALFCIKCGAQKSSEAQQLPQQQPSEPQAQGVVTQQQVVTNPPVQAQVATPQQPAQQPVLPQPEPAQPQPVSSTPAPQQASQPTNRYYIYFIQTPNENLVNKKVLLNFDLFPSVSMGRSPENIVIVPDSEVSRKHAVIYLDNSELYIEDLNSTNGTYVYDGKQFTPIKGKQKIEPNSIIKLGNQTIVRILKE
chain 2: B1 chain
modifications: phosphorylated in vitro by the kinase ArnC (sites not given) | phosphorylated in vitro by the kinase ArnC (sites not given)
notes: ArnA of Sulfolobus acidocaldarius; ArnB of Sulfolobus acidocaldarius; Same tag uncertainty as m13; ArnB is the chain that is mainly phosphorylated in the complex; also called phosphorylated oligomeric ArnA/B complex; (ArnA/B)2; source: reconstituted ArnA/B complex (E. coli proteins, SEC-isolated) incubated with ArnC, ATP and Mn2+ at 55°C for 30 min
B3: N-terminally Strep-tagged ArnA (natural protein, S. acidocaldarius, UniProt Q4J9H4 1-206, looked up)
chain: B2 chain 1
notes: ArnA of Sulfolobus acidocaldarius; printed molecular mass of Strep-ArnA 26.8 kDa; also called Strep-ArnA; source: E. coli Rosetta (DE3)/pLysS, purified (heat step, streptavidin beads, SEC); not shown: Strep II, N-terminal, kept

Experiments:
[1] = target: His-tagged ArnA (S. acidocaldarius); experiment: mass photometry; Refeyn OneMP, 20-100 nM protein in 50 mM Tris pH 8.0, 150 mM NaCl; SEC fractions of ArnA, ArnB, ArnA/B complex and phosphorylated ArnA/B complex
[2] = target: B3; experiment: SEC; Superdex 200 (16/600), 50 mM Tris pH 8, 150 mM NaCl; equal amounts of ArnA and ArnB mixed and kept on ice for 1 h; fractions on SDS-PAGE; stoichiometry concluded from SEC and mass photometry together; details: both partners purified
[3] = target: the molecule itself; experiment: mass photometry; Refeyn OneMP, 20-100 nM protein in 50 mM Tris pH 8.0, 150 mM NaCl; SEC fractions of ArnA, ArnB, ArnA/B complex and phosphorylated ArnA/B complex
[4] = target: the molecule itself; experiment: SEC; Superdex 200 (16/600), 50 mM Tris pH 8, 150 mM NaCl; equal amounts of ArnA and ArnB mixed and kept on ice for 1 h; fractions on SDS-PAGE; stoichiometry concluded from SEC and mass photometry together

## His-tagged ArnA (natural protein)
[1]
  stoichiometry N: 2

## B1
[2]
  stoichiometry N: 1
[1]
  stoichiometry N: 1

## B2
[3]
  stoichiometry N: 2 ArnA/B heterodimers per complex

## B3
[4]
  stoichiometry N: 2
